Data published in publication PMC2637916.

Key:
[1] = target: Guanylyl cyclase activating protein 1 (GCAP1), recombinant, with the D6S mutation (UniProt P46065); assay: SEC
[2] = target: Guanylyl cyclase activating protein 1 (GCAP1), recombinant, with the D6S mutation (UniProt P46065); assay: pulsed-field gradient diffusion NMR

stoichiometry N [1]: 2
stoichiometry N [2]: 2
Substance: Guanylyl cyclase activating protein 1 (GCAP1), recombinant, with the D6S mutation (from UniProt P46065 1-205) (natural protein)
